Measured values published in patent US20040077045A1 (LUDWIG INSTITUTE FOR CANCER RESEARCH, published 2004).

Experiments:
[1] = target: T1, HLA-DR7 (DRB1*0701), purified (human); assay: competition on purified HLA-DR (DRB1*0701); ratio to reference peptide YKL
T1 construct: mature

[2] = target: T2, HLA-DR1 (DRB1*0101), purified (human); assay: competition on purified HLA-DR (DRB1*0101); ratio to reference peptide HA 306-318
T2 construct: mature

[3] = target: T3, HLA-DR4 (DRB1*0401), purified (human); assay: competition on purified HLA-DR (DRB1*0401); ratio to reference peptide HA 306-318
T3 construct: mature

[4] = target: T4, HLA-DR11 (DRB1*1101), purified (human); assay: competition on purified HLA-DR (DRB1*1101); ratio to reference peptide HA 306-318
T4 construct: mature

[5] = target: T5, HLA-DR15 (DRB1*1501), purified (human); assay: competition on purified HLA-DR (DRB1*1501); ratio to reference peptide A3 152-166
T5 construct: mature

[6] = target: T6, HLA-DRB5 (DRB5*0101), purified (human); assay: competition on purified HLA-DR (DRB5*0101); ratio to reference peptide HA 306-318
T6 construct: mature

HLA-DRB4, purified [7] = target: HLA-DRB4, purified (human); assay: competition on purified HLA-DR (DRB4); labelled peptide not named; fluorescence assay
HLA-DRB4, purified [8] = target: HLA-DRB4, purified (human); assay: competition on purified HLA-DR (DRB4); ratio to a reference peptide that is not named
[9] = target: T1, HLA-DR7 (DRB1*0701), purified; assay: competition on purified HLA-DR (DRB1*0701) against biotinylated YKL (10 nM, pH 5); fluorescence assay
[10] = target: T2, HLA-DR1 (DRB1*0101), purified; assay: competition on purified HLA-DR (DRB1*0101) against biotinylated HA 306-318 (1 nM, pH 6); fluorescence assay
[11] = target: T7, HLA-DR3 (DRB1*0301), purified (human); assay: competition on purified HLA-DR (DRB1*0301) against biotinylated MT 2-16 (100 nM, pH 4.5); fluorescence assay
T7 construct: mature

[12] = target: T3, HLA-DR4 (DRB1*0401), purified; assay: competition on purified HLA-DR (DRB1*0401) against biotinylated HA 306-318 (30 nM, pH 6); fluorescence assay
[13] = target: T4, HLA-DR11 (DRB1*1101), purified; assay: competition on purified HLA-DR (DRB1*1101) against biotinylated HA 306-318 (20 nM, pH 5); fluorescence assay
[14] = target: T8, HLA-DR13 (DRB1*1301), purified (human); assay: competition on purified HLA-DR (DRB1*1301) against biotinylated B1 21-36 (200 nM, pH 4.5); fluorescence assay
T8 construct: mature

[15] = target: T6, HLA-DRB5 (DRB5*0101), purified; assay: competition on purified HLA-DR (DRB5*0101) against biotinylated HA 306-318 (5 nM, pH 5.5); fluorescence assay
[16] = target: T5, HLA-DR15 (DRB1*1501), purified; assay: competition on purified HLA-DR (DRB1*1501) against biotinylated A3 152-166 (10 nM, pH 4.5); fluorescence assay
[17] = target: T9, HLA-DRB3 (DRB3*0101), purified (human); assay: competition on purified HLA-DR (DRB3*0101) against biotinylated LOL 191-210 (5 nM, pH 5.5); fluorescence assay
T9 construct: mature

## ACYEFLWGPRALVETS [peptide MAGE-3 267-282 (ACYEFLWGPRALVETS)]
[1]
  Ratios IC50 MAGE-3/IC50 reference: 120
[2]
  Ratios IC50 MAGE-3/IC50 reference: 0.2
[3]
  Ratios IC50 MAGE-3/IC50 reference: 18
[4]
  Ratios IC50 MAGE-3/IC50 reference: 6
[5]
  Ratios IC50 MAGE-3/IC50 reference: 15
[6]
  Ratios IC50 MAGE-3/IC50 reference: 11
HLA-DRB4, purified [7]
  IC50: 2.8 µM
HLA-DRB4, purified [8]
  Ratios IC50 MAGE-3/IC50 reference: 70
[9]
  IC50: 1.2 µM
[10]
  IC50: 0.0004 µM
[11]
  IC50: > 10 µM
[12]
  IC50: 0.73 µM
[13]
  IC50: 0.15 µM
[14]
  IC50: > 10 µM
[15]
  IC50: 0.17 µM
[16]
  IC50: 0.22 µM
[17]
  IC50: > 10 µM
